Experimental findings from patent US20200369754A1 (Janssen / Centocor, published 2020) are described below.

B1: CBTAU-28.1 (I50M[VH];Y52W[VH];S103W[VH];S32R[VL];E35K[VL]) (antibody, V domains shown)
VH: QVQLQQSGAEVKKPGESLKISCEASGYSFTNYWIGWVRQMPGKGLEWMGMIWPGDSDTRYSPPFQGQVTITADRSITTAYLEWSSLKASDTAMYYCARVGRPWKGGWFDPWGQGTLVTVSS
VL: DIQMTQSPDSLAVSLGERATINCESSQTLLYRSNKKNYLAWYQQKPGQPPKLLISWASTPESGVPDRFSGSGSGTSFTLTISSLQAEDVAVYYCQQYYNSPYTFGQGTRLEIK
B2: CBTAU-28.1 (S32R[VL];E35K[VL]) (antibody, V domains shown)
VH: B1 VH with M50I, W52Y, W103S
VL: B1 VL
B3: CBTAU-28.1 (I50M[VH];Y52W[VH];S103F[VH];S32R[VL];E35K[VL]) (antibody, V domains shown)
VH: B1 VH with W103F
VL: B1 VL
B4: CBTAU-28.1 (I50M[VH];Y52W[VH];S103F[VH];Y31W[VL];N99H[VL]) (antibody, V domains shown)
VH: B1 VH with W103F
VL: B1 VL with Y31W, R32S, K35E, N99H
B5: CBTAU-28.1 (I50M[VH];Y52W[VH];S103W[VH];Y31W[VL];N99H[VL]) (antibody, V domains shown)
VH: B1 VH
VL: B1 VL with Y31W, R32S, K35E, N99H

Residue numbers refer to the chain shown, from its start. Numbers in names are those of the source.

T1 sequence (P10636 other isoform, or with tags, fused parts or gaps limits assumed): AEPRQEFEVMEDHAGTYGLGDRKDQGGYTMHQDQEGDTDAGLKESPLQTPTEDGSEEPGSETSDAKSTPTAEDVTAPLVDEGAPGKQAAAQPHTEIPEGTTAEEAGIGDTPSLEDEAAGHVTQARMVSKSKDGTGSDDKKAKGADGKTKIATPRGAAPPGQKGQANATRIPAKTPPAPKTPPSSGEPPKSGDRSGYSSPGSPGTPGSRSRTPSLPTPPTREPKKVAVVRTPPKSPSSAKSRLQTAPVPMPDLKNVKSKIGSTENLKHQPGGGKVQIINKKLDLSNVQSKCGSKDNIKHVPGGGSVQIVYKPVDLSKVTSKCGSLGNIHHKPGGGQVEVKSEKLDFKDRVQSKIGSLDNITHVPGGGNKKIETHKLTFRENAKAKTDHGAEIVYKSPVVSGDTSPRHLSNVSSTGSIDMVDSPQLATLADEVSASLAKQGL

One assay addresses T1, Aggregated recombinant 2N4R tau (rTau) (human, UniProt P10636 2-758, covalently labelled with pHrodo Green STP Ester).
T1 construct: Full-length huTau441 expressed in E. coli, in aggregated form; also called rTau aggregates; tau aggregates
The experiment in a line: uptake of pHrodo-labelled rTau immunocomplexes by BV2 cells, flow cytometry. As to the method: In each experiment a mouse IgG1 isotype control was included together with cells incubate with only aggregated rTau.
Immunocomplexes were incubated over night at 4° C. and the day after applied to BV2 cells for 2 hours at 37° C. with 5% CO2. After incubation cells were harvested with 0.25% trypsin-EDTA for 20 min thus simultaneously removing Tau bound to the extracellular membrane, centrifuged at 400 rcf to remove medium removed, washed twice with PBS and resuspended in flow cytometry buffer (PBS 1× plus 0.5% BSA and 2 mM EDTA). Cells were analyzed with a Canto II flow cytometer (BD) gating for live single cell population, as identified by forward and side scatter profiles. Each experiment was conducted in duplicate.
(Flow cytometry measures light scatter and fluorescence of single cells or particles in a stream.)
As to B1, the binding result is reported as “binds”.
Take B2: the binding result is on record as “binds”.
As for B3, the binding result is “binds”.
In the case of B4, the binding result was “binds”.
As to B5, the binding result is given as “binds”.

A further assay has as its target T2, Tau peptide A6940 (human, biotin (bound via biotin to a streptavidin biosensor in the Octet assay; position of the biotin not stated)).
T2 construct: Biotinylated in the Octet assay; also called cognate Tau peptide A6940
T2 peptide: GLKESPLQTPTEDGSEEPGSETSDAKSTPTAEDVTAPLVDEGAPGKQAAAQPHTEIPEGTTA
The experiment in a line: ITC, tau peptide 20 uM titrated with IgG 200 uM, PBS pH 7.4, one set of sites model. Here is the method: Affinities of the novel antibodies were determined using a Microcal Auto-iTC200 isothermal titration calorimeter (Malvern). […] Data was fitted according to a one set of sites model using Microcal PEAQ-ITC Analysis Software (Malvern).
The continuous lines represent the fit of the data to a “one set of binding sites” model.
Usually Kd stands for a measure of binding affinity in units of concentration. A lower Kd goes with tighter binding. Molecule B1 gave a Kd of 67 nM.
On to B3, for which the affinity, expressed as Kd, was 63 nM.
In turn, B4 had an equilibrium dissociation constant (Kd) of 45 nM. This Kd and that of the molecule before are within 1.5-fold of each other.
B5 yielded a Kd of 57 nM.
